Assay results taken from US20100151524A1 (DARWIN DISCOVERY, published 2010).
Blank lines part the entries; values can stand above or below the molecule they belong to.

B3: BMP-6 (ligand, UniProt P22004 382-513, looked up)
chain: QQSRNRSTQSQDVARVSSASDYNSSELKTACRKHELYVSFQDLGWQDWIIAPKGYAANYCDGECSFPLNAHMNATNHAIVQTLVHLMNPEYVPKPCCAPTKLNAISVLYFDDNSNVILKKYRNMVVRACGCH

Columns and labels:
BMP-6 [1] = biological target: B3; assay: ELISA-based competition: sclerostin coated, BMP-6 11 nM; competitor sclerostin
BMP-6 [2] = biological target: B3; assay: ELISA-based competition: sclerostin coated (300 ng/well), BMP-6 11 nM, receptor-FC titrated; competitor sclerostin
BMP-6 [3] = biological target: B3; assay: ELISA-based competition: sclerostin coated, BMP-6, DAN titrated; competitor sclerostin
[4] = biological target: T1, FLAG epitope-tagged Beer (human Beer, secretion signal removed, C-terminal FLAG tag, from … (human, UniProt Q9BQB4 24-213)); assay: anti-FLAG immunoprecipitation of FLAG-tagged Beer incubated with BMP-4, anti-BMP-4 western blot; Cerberus with BMP-4 as positive control on the left part
T1 construct: also called FLAG-Beer; H. Beer
T1 sequence: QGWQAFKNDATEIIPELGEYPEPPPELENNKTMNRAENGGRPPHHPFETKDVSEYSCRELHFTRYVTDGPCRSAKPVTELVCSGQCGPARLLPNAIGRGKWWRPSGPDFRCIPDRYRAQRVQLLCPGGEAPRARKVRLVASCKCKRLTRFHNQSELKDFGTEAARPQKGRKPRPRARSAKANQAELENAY
Procedure: The interaction of Beer with proteins from different phylogenetic arms of the TGF-β superfamily were studied using immunoprecipitation methods. Purified TGFβ-1, TGFβ-2, TGFβ-3, BMP-4, BMP-5, BMP-6 and GDNF were obtained from commerical sources (R&D systems; Minneapolis, Minn.). A representative protocol is as follows. Partially purified Beer was dialyzed into HEPES buffered saline (25 mM HEPES 7.5, 150 mM NaCl). Immunoprecipitations were done in 300 ul of IP buffer (150 mM NaCl, 25 mM Tris pH 7.5, 1 mM EDTA, 1.4 mM β-mercaptoethanol, 0.5% triton×100, and 10% glycerol). […] The proteins were resolved by SDS PAGE and Beer associated BMP-5 was detected by western blot using anti-BMP-5 antiserum (Research Diagnostics, Inc) (see FIG. 5).

[5] = biological target: T1, FLAG epitope-tagged Beer (human Beer, …); assay: Beer ligand binding assay (FLAG-Beer captured on an anti-FLAG plate, BMP-5 titrated, ELISA detection), FIG. 6
Procedure: FLAG-Beer protein (20 ng) is added to 100 ul PBS/0.2% BSA and adsorbed into each well of 96 well microtiter plate previously coated with anti-FLAG monoclonal antibody (Sigma; St Louis Mo.) and blocked with 10% BSA in PBS. This is conducted at room temperature for 60 minutes. This protein solution is removed and the wells are washed to remove unbound protein. BMP-5 is added to each well in concentrations ranging from […] to 500 nM in PBS/0.2% BSA and incubated for 2 hours at room temperature. The binding solution is removed and the plate washed with three times with 200 ul volumes of PBS/0.2% BSA. BMP-5 levels are then detected using BMP-5 anti-serum via ELISA (F. M. Ausubel et al (1998) Current Protocols in Mol. Biol. Vol 2 11.2.1-11.2.22). Specific binding is calculated by subtracting non-specific binding from total binding and analyzed by the LIGAND program (Munson and Podbard, Anal. Biochem., 107, p 220-239, (1980).

[6] = biological target: T2, sclerostin (coated on the ELISA surface, Example 12) (Homo sapiens (Human), UniProt Q9BQB4 24-213); assay: ELISA, sclerostin-coated surface (300 ng/well), BMP-6 in solution
T2 construct: also called SOST; Beer
T2 sequence: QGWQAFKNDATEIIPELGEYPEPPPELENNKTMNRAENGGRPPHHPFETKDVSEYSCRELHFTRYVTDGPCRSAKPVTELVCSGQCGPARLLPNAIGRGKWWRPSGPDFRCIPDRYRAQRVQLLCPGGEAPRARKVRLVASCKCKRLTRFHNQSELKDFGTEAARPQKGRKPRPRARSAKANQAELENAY
Procedure: (§1) A 10-fold molar excess of the BMP receptor was sufficient to reduce binding of sclerostin to BMP-6 by approximately 50%. This competition was also observed with a BMP receptor II-FC fusion protein (IC₅₀=36 nM) and DAN (IC₅₀=43 nM).

BMP-6 [7] = biological target: B3; assay: ELISA-based competition: sclerostin coated, BMP-6, receptor-FC titrated; competitor sclerostin
Procedure: as §1

- IC50 (BMP-6 [3]): 43 nM
Molecule: DAN (competitor in Example 12)

- binding result [4]: no binding
B1: BMP-4 (ligand, UniProt P12644 293-408, looked up)
chain: SPKHHSQRARKKNKNCRRHSLYVDFSDVGWNDWIVAPPGYQAFYCHGDCPFPLADHLNSTNHAIVQTLVNSVNSSIPKACCVPTELSAISMLYLDEYDKVVLKNYQEMVVEGCGCR

- Kd [5]: 15 to 30 nM
B2: recombinant human BMP-5 protein (R&D systems) (ligand, UniProt P22003 317-454, looked up)
chain: AANKRKNQNRNKSSSHQDSSRMSSVGDYNTSEQKQACKKHELYVSFRDLGWQDWIIAPEGYAAFYCDGECSFPLNAHMNATNHAIVQTLVHLMFPDHVPKPCCAPTKLNAISVLYFDDSSNVILKKYRNMVVRSCGCH
notes: Commercial protein

The remaining lines, values behind:

Molecule: BMP receptor IA (FC fusion construct)
- reduction of binding of sclerostin to BMP-6 at a 10-fold molar excess of receptor (BMP-6 [1]): 50%
- IC50 (BMP-6 [2]): 114 nM

Molecule: B3
- Kd [6]: 3.4 nM

B4: BMP receptor II-FC fusion protein (Fc fusion)
chain: SQNQERLCAFKDPYQQDLGIGESRISHENGTILCSKGSTCYGLWEKSKGDINLVKQGCWSHIGDPQECHYEECVVTTTPPSIQNGTYRFCCCSTDLCNVNFTENFPPPDTTPLSPPHSFNRDET
notes: also called BMPR-II; type II receptor; not shown: Fc part and any linker
- IC50 (BMP-6 [7]): 36 nM
